Numbered stars: 1 amine (or outer) side, 2 acyl side, 3 side chain; on linkers, the order of the positions; unused ones are H or OH. Ends that are not written are not given here. * marks the point of attachment. C20 diacid = O=C(O)CCCCCCCCCCCCCCCCCCC(=O)*; C18 diacid = O=C(O)CCCCCCCCCCCCCCCCC(=O)*; γGlu = O=C(O)[C@H](CCC(=O)[*:2])N[*:1]; AEEA = NCCOCCOCC(=O)O

The values that follow come from US20160272683A1 (Novo Nordisk, published 2016).

T1: human calcitonin receptor (human, UniProt P30988 25-474)
T1 construct: whole, on cells; also called hCT-R; hCTR
T1 sequence (looked up): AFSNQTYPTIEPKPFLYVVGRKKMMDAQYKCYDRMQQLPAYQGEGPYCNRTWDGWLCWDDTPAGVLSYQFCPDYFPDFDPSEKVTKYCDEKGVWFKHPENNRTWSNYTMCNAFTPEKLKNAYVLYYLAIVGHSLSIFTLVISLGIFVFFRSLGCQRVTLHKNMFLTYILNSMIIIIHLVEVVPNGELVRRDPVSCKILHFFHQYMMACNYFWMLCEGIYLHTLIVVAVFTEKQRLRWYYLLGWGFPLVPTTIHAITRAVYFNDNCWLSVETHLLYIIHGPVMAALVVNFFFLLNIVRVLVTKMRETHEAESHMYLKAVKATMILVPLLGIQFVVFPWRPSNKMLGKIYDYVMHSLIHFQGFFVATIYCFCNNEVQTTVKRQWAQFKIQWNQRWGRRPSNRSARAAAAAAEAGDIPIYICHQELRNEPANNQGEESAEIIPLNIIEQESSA

B1: [des1, 5V, 9V, 30S, 31G]mimylin (peptide)
peptide: ASEVSTAVLGRLSAELHELATLPRTETGSGSP-NH2
notes: backbone without side chain; also called Ex. #86bb; 86bb
B2: [des1, 6T, 9V, 30T, 31G, 32T]mimylin (peptide)
peptide: ASELTTAVLGRLSAELHELATLPRTETGTGTP-NH2
notes: backbone without side chain; also called Ex. #95bb; 95bb
B3: [des1, 6T, 9V, 14E, 21T, 30T, 31G, 32T]mimylin (peptide)
peptide: ASELTTAVLGRLEAELHELTTLPRTETGTGTP-NH2
notes: backbone without side chain
B4: [des1, 12H, 30S, 31G]mimylin (peptide)
peptide: ASELSTAALGHLSAELHELATLPRTETGSGSP-NH2
notes: backbone without side chain; also called Ex. #72bb; 72bb
B5: [N-terminal(C20 diacid-gGlu), -1E, 1A, 23Y, 30S, 31G]mimylin (peptide)
peptide: {C20 diacid-γGlu}-EAASELSTAALGRLSAELHELATYPRTETGSGSP-NH2
SMILES: CC(C)C[C@H](NC(=O)[C@H](C)NC(=O)[C@H](C)NC(=O)[C@@H](NC(=O)[C@H](CO)NC(=O)[C@H](CC(C)C)NC(=O)[C@H](CCC(=O)O)NC(=O)[C@H](CO)NC(=O)[C@H](C)NC(=O)[C@H](C)NC(=O)[C@H](CCC(=O)O)NC(=O)CC[C@H](NC(=O)CCCCCCCCCCCCCCCCCCC(=O)O)C(=O)O)[C@@H](C)O)C(=O)NCC(=O)N[C@@H](CCCNC(=N)N)C(=O)N[C@@H](CC(C)C)C(=O)N[C@@H](CO)C(=O)N[C@@H](C)C(=O)N[C@@H](CCC(=O)O)C(=O)N[C@@H](CC(C)C)C(=O)N[C@@H](Cc1c[nH]cn1)C(=O)N[C@@H](CCC(=O)O)C(=O)N[C@@H](CC(C)C)C(=O)N[C@@H](C)C(=O)N[C@H](C(=O)N[C@@H](Cc1ccc(O)cc1)C(=O)N1CCC[C@H]1C(=O)N[C@@H](CCCNC(=N)N)C(=O)N[C@H](C(=O)N[C@@H](CCC(=O)O)C(=O)N[C@H](C(=O)NCC(=O)N[C@@H](CO)C(=O)NCC(=O)N[C@@H](CO)C(=O)N1CCC[C@H]1C(N)=O)[C@@H](C)O)[C@@H](C)O)[C@@H](C)O
notes: also called Ex. #83
B6: [N-terminal(C20 diacid-gGlu), des1, 23Y, 30S, 31G, 34G, C-terminal(-)]mimylin (peptide)
peptide: {C20 diacid-γGlu}-ASELSTAALGRLSAELHELATYPRTETGSGSPG-OH
SMILES: CC(C)C[C@H](NC(=O)[C@H](C)NC(=O)[C@H](C)NC(=O)[C@@H](NC(=O)[C@H](CO)NC(=O)[C@H](CC(C)C)NC(=O)[C@H](CCC(=O)O)NC(=O)[C@H](CO)NC(=O)[C@H](C)NC(=O)CC[C@H](NC(=O)CCCCCCCCCCCCCCCCCCC(=O)O)C(=O)O)[C@@H](C)O)C(=O)NCC(=O)N[C@@H](CCCNC(=N)N)C(=O)N[C@@H](CC(C)C)C(=O)N[C@@H](CO)C(=O)N[C@@H](C)C(=O)N[C@@H](CCC(=O)O)C(=O)N[C@@H](CC(C)C)C(=O)N[C@@H](Cc1c[nH]cn1)C(=O)N[C@@H](CCC(=O)O)C(=O)N[C@@H](CC(C)C)C(=O)N[C@@H](C)C(=O)N[C@H](C(=O)N[C@@H](Cc1ccc(O)cc1)C(=O)N1CCC[C@H]1C(=O)N[C@@H](CCCNC(=N)N)C(=O)N[C@H](C(=O)N[C@@H](CCC(=O)O)C(=O)N[C@H](C(=O)NCC(=O)N[C@@H](CO)C(=O)NCC(=O)N[C@@H](CO)C(=O)N1CCC[C@H]1C(=O)NCC(=O)O)[C@@H](C)O)[C@@H](C)O)[C@@H](C)O
notes: also called Ex. #89
B7: [N-terminal(C20 diacid-gGlu), des1, 23Y, 30S, 31G, 34K, C-terminal(-)]mimylin (peptide)
peptide: {C20 diacid-γGlu}-ASELSTAALGRLSAELHELATYPRTETGSGSPK-OH
SMILES: CC(C)C[C@H](NC(=O)[C@H](C)NC(=O)[C@H](C)NC(=O)[C@@H](NC(=O)[C@H](CO)NC(=O)[C@H](CC(C)C)NC(=O)[C@H](CCC(=O)O)NC(=O)[C@H](CO)NC(=O)[C@H](C)NC(=O)CC[C@H](NC(=O)CCCCCCCCCCCCCCCCCCC(=O)O)C(=O)O)[C@@H](C)O)C(=O)NCC(=O)N[C@@H](CCCNC(=N)N)C(=O)N[C@@H](CC(C)C)C(=O)N[C@@H](CO)C(=O)N[C@@H](C)C(=O)N[C@@H](CCC(=O)O)C(=O)N[C@@H](CC(C)C)C(=O)N[C@@H](Cc1c[nH]cn1)C(=O)N[C@@H](CCC(=O)O)C(=O)N[C@@H](CC(C)C)C(=O)N[C@@H](C)C(=O)N[C@H](C(=O)N[C@@H](Cc1ccc(O)cc1)C(=O)N1CCC[C@H]1C(=O)N[C@@H](CCCNC(=N)N)C(=O)N[C@H](C(=O)N[C@@H](CCC(=O)O)C(=O)N[C@H](C(=O)NCC(=O)N[C@@H](CO)C(=O)NCC(=O)N[C@@H](CO)C(=O)N1CCC[C@H]1C(=O)N[C@@H](CCCCN)C(=O)O)[C@@H](C)O)[C@@H](C)O)[C@@H](C)O
notes: also called Ex. #90
B8: [N-terminal(C18 diacid-gGlu-2xOEG), des1, 4G, 9V, 15Q, 21Q, 23Y, 30S, 31G, 32T, 33Y]mimylin (peptide)
peptide: {C18 diacid-γGlu-AEEA-AEEA}-ASGLSTAVLGRLSQELHELQTYPRTETGSGTY-NH2
SMILES: CC(C)C[C@H](NC(=O)CNC(=O)[C@H](CO)NC(=O)[C@H](C)NC(=O)COCCOCCNC(=O)COCCOCCNC(=O)CC[C@H](NC(=O)CCCCCCCCCCCCCCCCC(=O)O)C(=O)O)C(=O)N[C@@H](CO)C(=O)N[C@H](C(=O)N[C@@H](C)C(=O)N[C@H](C(=O)N[C@@H](CC(C)C)C(=O)NCC(=O)N[C@@H](CCCNC(=N)N)C(=O)N[C@@H](CC(C)C)C(=O)N[C@@H](CO)C(=O)N[C@@H](CCC(N)=O)C(=O)N[C@@H](CCC(=O)O)C(=O)N[C@@H](CC(C)C)C(=O)N[C@@H](Cc1c[nH]cn1)C(=O)N[C@@H](CCC(=O)O)C(=O)N[C@@H](CC(C)C)C(=O)N[C@@H](CCC(N)=O)C(=O)N[C@H](C(=O)N[C@@H](Cc1ccc(O)cc1)C(=O)N1CCC[C@H]1C(=O)N[C@@H](CCCNC(=N)N)C(=O)N[C@H](C(=O)N[C@@H](CCC(=O)O)C(=O)N[C@H](C(=O)NCC(=O)N[C@@H](CO)C(=O)NCC(=O)N[C@H](C(=O)N[C@@H](Cc1ccc(O)cc1)C(N)=O)[C@@H](C)O)[C@@H](C)O)[C@@H](C)O)[C@@H](C)O)C(C)C)[C@@H](C)O
notes: also called Ex. #121
B9: [N-terminal(C20 diacid-gGlu), des1, 2L, 4G, 9V, 21S, 23Y, 30S, 31G, 32T, 33Y]mimylin (peptide)
peptide: {C20 diacid-γGlu}-LSGLSTAVLGRLSAELHELSTYPRTETGSGTY-NH2
SMILES: CC(C)C[C@H](NC(=O)CC[C@H](NC(=O)CCCCCCCCCCCCCCCCCCC(=O)O)C(=O)O)C(=O)N[C@@H](CO)C(=O)NCC(=O)N[C@@H](CC(C)C)C(=O)N[C@@H](CO)C(=O)N[C@H](C(=O)N[C@@H](C)C(=O)N[C@H](C(=O)N[C@@H](CC(C)C)C(=O)NCC(=O)N[C@@H](CCCNC(=N)N)C(=O)N[C@@H](CC(C)C)C(=O)N[C@@H](CO)C(=O)N[C@@H](C)C(=O)N[C@@H](CCC(=O)O)C(=O)N[C@@H](CC(C)C)C(=O)N[C@@H](Cc1c[nH]cn1)C(=O)N[C@@H](CCC(=O)O)C(=O)N[C@@H](CC(C)C)C(=O)N[C@@H](CO)C(=O)N[C@H](C(=O)N[C@@H](Cc1ccc(O)cc1)C(=O)N1CCC[C@H]1C(=O)N[C@@H](CCCNC(=N)N)C(=O)N[C@H](C(=O)N[C@@H](CCC(=O)O)C(=O)N[C@H](C(=O)NCC(=O)N[C@@H](CO)C(=O)NCC(=O)N[C@H](C(=O)N[C@@H](Cc1ccc(O)cc1)C(N)=O)[C@@H](C)O)[C@@H](C)O)[C@@H](C)O)[C@@H](C)O)C(C)C)[C@@H](C)O
B10: [N-terminal(C20 diacid), des1, 4G, 15Q, 21Q, 23Y, 30S, 31G, 32T, 33Y]mimylin (peptide)
peptide: {C20 diacid}-ASGLSTAALGRLSQELHELQTYPRTETGSGTY-NH2
SMILES: CC(C)C[C@H](NC(=O)CNC(=O)[C@H](CO)NC(=O)[C@H](C)NC(=O)CCCCCCCCCCCCCCCCCCC(=O)O)C(=O)N[C@@H](CO)C(=O)N[C@H](C(=O)N[C@@H](C)C(=O)N[C@@H](C)C(=O)N[C@@H](CC(C)C)C(=O)NCC(=O)N[C@@H](CCCNC(=N)N)C(=O)N[C@@H](CC(C)C)C(=O)N[C@@H](CO)C(=O)N[C@@H](CCC(N)=O)C(=O)N[C@@H](CCC(=O)O)C(=O)N[C@@H](CC(C)C)C(=O)N[C@@H](Cc1c[nH]cn1)C(=O)N[C@@H](CCC(=O)O)C(=O)N[C@@H](CC(C)C)C(=O)N[C@@H](CCC(N)=O)C(=O)N[C@H](C(=O)N[C@@H](Cc1ccc(O)cc1)C(=O)N1CCC[C@H]1C(=O)N[C@@H](CCCNC(=N)N)C(=O)N[C@H](C(=O)N[C@@H](CCC(=O)O)C(=O)N[C@H](C(=O)NCC(=O)N[C@@H](CO)C(=O)NCC(=O)N[C@H](C(=O)N[C@@H](Cc1ccc(O)cc1)C(N)=O)[C@@H](C)O)[C@@H](C)O)[C@@H](C)O)[C@@H](C)O)[C@@H](C)O
B11: [N-terminal(C20 diacid-gGlu), des1, 4G, 8L, 9V, 15Q, 21Q, 23Y, 30S, 31Q, 32T, 33Y]mimylin (peptide)
peptide: {C20 diacid-γGlu}-ASGLSTLVLGRLSQELHELQTYPRTETGSQTY-NH2
SMILES: CC(C)C[C@H](NC(=O)CNC(=O)[C@H](CO)NC(=O)[C@H](C)NC(=O)CC[C@H](NC(=O)CCCCCCCCCCCCCCCCCCC(=O)O)C(=O)O)C(=O)N[C@@H](CO)C(=O)N[C@H](C(=O)N[C@@H](CC(C)C)C(=O)N[C@H](C(=O)N[C@@H](CC(C)C)C(=O)NCC(=O)N[C@@H](CCCNC(=N)N)C(=O)N[C@@H](CC(C)C)C(=O)N[C@@H](CO)C(=O)N[C@@H](CCC(N)=O)C(=O)N[C@@H](CCC(=O)O)C(=O)N[C@@H](CC(C)C)C(=O)N[C@@H](Cc1c[nH]cn1)C(=O)N[C@@H](CCC(=O)O)C(=O)N[C@@H](CC(C)C)C(=O)N[C@@H](CCC(N)=O)C(=O)N[C@H](C(=O)N[C@@H](Cc1ccc(O)cc1)C(=O)N1CCC[C@H]1C(=O)N[C@@H](CCCNC(=N)N)C(=O)N[C@H](C(=O)N[C@@H](CCC(=O)O)C(=O)N[C@H](C(=O)NCC(=O)N[C@@H](CO)C(=O)N[C@@H](CCC(N)=O)C(=O)N[C@H](C(=O)N[C@@H](Cc1ccc(O)cc1)C(N)=O)[C@@H](C)O)[C@@H](C)O)[C@@H](C)O)[C@@H](C)O)C(C)C)[C@@H](C)O

The target in this test is T1, human calcitonin receptor. Nature of the test: whole-cell competition vs 125I-human calcitonin (Assay VIIa). The method, boiled down: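 BHK tk'ts 13 cells stably co-expressing human calcitonin receptor and a CRE-luciferase reporter, seeded overnight at 37 °C. Bound tracer counted by scintillation after cold HBSS washes and NaOH/SDS lysis; IC₅₀ from one-site competition fit taken as receptor affinity.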
Broadly, the IC50 is the concentration needed to halve the response being measured. Consider B1, for which the IC50 amounted to 0.52 nM.

Regarding B2, the IC50 was determined as 15.3 nM.

Take B3: the IC50 came to 62.9 nM.

On to B4, for which the IC50 is 4.53 nM.

Turning to B5, the IC50 was 1.57 nM.

Turning to B6, the IC50 amounted to 3.6 nM.

As for B7, the IC50 worked out at 6.84 nM.

In the case of B8, the half-maximal inhibitory concentration (IC50) was found to be 0.3 nM.

Take B9: the concentration for half-maximal inhibition (IC50) was determined as 5.62 nM.

For the molecule B10, the IC50 worked out at 0.747 nM.

For the molecule B11, the IC50 was 1.83 nM.
